Values quoted from earlier work in publication PMC5724930.
Read-outs that look alike come from different tables or passages of the source.

Tests used:
[1] = molecular target: proPanD (Escherichia coli) (UniProt P0A790)
[2] = molecular target: proPanD (Escherichia coli) (UniProt P0A790); remark: listed apart in the source

proPanD (Escherichia coli), sequence (P0A790 whole entry): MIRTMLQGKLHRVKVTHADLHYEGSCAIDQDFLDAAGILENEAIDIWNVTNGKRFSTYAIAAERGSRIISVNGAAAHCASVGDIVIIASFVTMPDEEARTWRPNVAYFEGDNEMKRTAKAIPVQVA
PanZ, sequence (P37613 whole entry): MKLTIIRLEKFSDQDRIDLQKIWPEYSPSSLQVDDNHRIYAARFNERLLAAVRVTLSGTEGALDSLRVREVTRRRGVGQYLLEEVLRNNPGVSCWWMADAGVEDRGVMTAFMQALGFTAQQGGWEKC

Kd [1]: 4000 nM | Kd [2]: 100 nM
Substance: PanZ (from UniProt P37613)
